Columns and labels:
Test in all cases: IEDB peptide-MHC binding, purified MHC/competitive/radioactivity; filed as Kd, often an IC50 or EC50 that approximates it; ≥ and ≤ were set here for values at or beyond the usual limits of such assays
Details in all cases: source organism: Toxoplasma gondii
HLA-B*07:02 = biological target: HLA-B*07:02
HLA-B*35:01 = biological target: HLA-B*35:01
HLA-B*35:03 = biological target: HLA-B*35:03
HLA-B*42:01 = biological target: HLA-B*42:01
HLA-B*51:01 = biological target: HLA-B*51:01
HLA-B*53:01 = biological target: HLA-B*53:01
HLA-B*54:01 = biological target: HLA-B*54:01

HPGSVNEFDF
Kd (HLA-B*07:02): 3.62 µM | Kd (HLA-B*35:01): 2.09 µM | Kd (HLA-B*35:03): 11.5 µM | Kd (HLA-B*42:01): 0.877 µM | Kd (HLA-B*51:01): 14.7 µM | Kd (HLA-B*53:01): 5.52 µM | Kd (HLA-B*54:01): 0.854 µM
